Test results taken from patent publication US20240132589A1.

Key:
[1] = target: Human LILRB2 on stably transduced HEK293T cells (human) (UniProt Q8N423); assay: flow cytometry competition on HEK293T-LILRB2 cells; blocking mAb 1 µg/mL; competitor: biotinylated B2Comp1
[2] = target: Human LILRB2 on stably transduced HEK293T cells (human) (UniProt Q8N423); assay: flow cytometry competition on HEK293T-LILRB2 cells; blocking mAb 1 µg/mL; competitor: biotinylated B2Comp2
[3] = target: Human LILRB2 on stably transduced HEK293T cells (human) (UniProt Q8N423); assay: flow cytometry competition on HEK293T-LILRB2 cells; blocking mAb 10 µg/mL; competitor: biotinylated B2Comp1
[4] = target: Human LILRB2 on stably transduced HEK293T cells (human) (UniProt Q8N423); assay: flow cytometry competition on HEK293T-LILRB2 cells; blocking mAb 10 µg/mL; competitor: biotinylated B2Comp2
[5] = target: Human LILRB2 on stably transduced HEK293T cells (human) (UniProt Q8N423); assay: flow cytometry competition on HEK293T-LILRB2 cells; blocking mAb 0.1 µg/mL; competitor: biotinylated B2Comp1
[6] = target: Human LILRB2 on stably transduced HEK293T cells (human) (UniProt Q8N423); assay: flow cytometry competition on HEK293T-LILRB2 cells; blocking mAb 0.1 µg/mL; competitor: biotinylated B2Comp2

Chain of Human LILRB2 on stably transduced HEK293T cells (human) (Q8N423 other isoform, or with tags, fused parts or gaps limits assumed): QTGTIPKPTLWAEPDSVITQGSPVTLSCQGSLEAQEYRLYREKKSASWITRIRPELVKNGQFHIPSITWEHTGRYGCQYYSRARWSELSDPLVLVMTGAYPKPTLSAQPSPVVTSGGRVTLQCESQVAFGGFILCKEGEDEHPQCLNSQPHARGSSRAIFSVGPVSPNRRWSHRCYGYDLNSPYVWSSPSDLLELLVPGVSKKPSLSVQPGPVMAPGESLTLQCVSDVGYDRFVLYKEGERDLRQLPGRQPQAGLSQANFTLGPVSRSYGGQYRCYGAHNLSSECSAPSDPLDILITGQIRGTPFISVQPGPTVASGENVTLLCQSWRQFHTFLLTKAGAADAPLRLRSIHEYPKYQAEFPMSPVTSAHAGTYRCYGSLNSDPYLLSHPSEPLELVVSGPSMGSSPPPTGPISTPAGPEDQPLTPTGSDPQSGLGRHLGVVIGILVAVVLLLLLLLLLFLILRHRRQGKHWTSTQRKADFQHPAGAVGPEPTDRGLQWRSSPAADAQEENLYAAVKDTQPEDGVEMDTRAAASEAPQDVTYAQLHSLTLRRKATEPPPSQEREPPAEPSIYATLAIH

hIgG4 isotype control (antibody)
0%: % Blocking of B2Comp1 Binding [1] | % Blocking of B2Comp2 Binding [2] | % Blocking of B2Comp1 Binding [3] | % Blocking of B2Comp2 Binding [4] | % Blocking of B2Comp1 Binding [5] | % Blocking of B2Comp2 Binding [6]
